Among the data in PMC4352763 are Kd and activation of Ub-AMC hydrolysis by the addition of RPN13^DEU values, retold here.

A word on the Kd: it is a measure of binding affinity in units of concentration. High values mean weaker binding, low ones tighter binding.

The target of assay [1] is Ub-LysGlyTAMRA (UniProt P0CG48). In words: fluorescence polarisation. In general terms: Polarisation of emitted light reports the rotation of a fluorescent probe.
The target of assay [2] is UCH-L5 (full-length, wild type) (human).
In assay [3] the target is UCH-L5_(M148A/F149A) (human).
Assay [4] concerns the target RPN13 DEUBAD domain (aa 265-388) (human) (UniProt Q16186). In words: ITC. For orientation: Isothermal titration calorimetry measures the heat released or taken up as one component is titrated into another.

Sequence of UniProt P0CG48 (P0CG48 whole entry, looked up): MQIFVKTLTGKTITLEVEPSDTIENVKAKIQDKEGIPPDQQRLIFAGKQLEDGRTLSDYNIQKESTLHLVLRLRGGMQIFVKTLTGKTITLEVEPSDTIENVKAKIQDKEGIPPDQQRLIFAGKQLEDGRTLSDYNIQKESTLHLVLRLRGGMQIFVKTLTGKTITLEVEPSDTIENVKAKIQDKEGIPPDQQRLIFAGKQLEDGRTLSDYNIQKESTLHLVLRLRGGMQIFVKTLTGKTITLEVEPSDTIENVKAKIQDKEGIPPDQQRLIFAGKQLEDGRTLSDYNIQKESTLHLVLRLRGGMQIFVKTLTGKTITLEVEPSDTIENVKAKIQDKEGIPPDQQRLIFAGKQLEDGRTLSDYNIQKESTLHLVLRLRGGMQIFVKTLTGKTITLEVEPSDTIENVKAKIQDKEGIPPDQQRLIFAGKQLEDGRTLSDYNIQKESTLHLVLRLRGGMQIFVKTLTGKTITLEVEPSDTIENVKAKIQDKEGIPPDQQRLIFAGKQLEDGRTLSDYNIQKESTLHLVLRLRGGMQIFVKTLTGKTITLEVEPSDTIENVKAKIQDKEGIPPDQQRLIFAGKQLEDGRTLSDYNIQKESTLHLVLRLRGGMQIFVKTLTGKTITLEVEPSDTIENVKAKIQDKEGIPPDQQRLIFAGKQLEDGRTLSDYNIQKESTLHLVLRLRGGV

With “UCH-L5 (C88A)/RPN13DEU complex (from UniProt Q9Y5K5-3;Q16186)”, the Kd in assay [1] stood at 2300 nM.
In the case of “RPN13 DEUBAD domain (aa 265-388) (from UniProt Q16186 265-388) (domain or fragment)”, the activation of Ub-AMC hydrolysis by the addition of RPN13^DEU worked out at 7 fold in assay [2] and 2.7 fold in assay [3].
On to “UCH-L5 (full-length, wild type) (enzyme)”, for which the Kd in assay [4] amounted to 6 nM.
